Literature values in PMC6526119.

Biological target: Hsp90 (Saccharomyces cerevisiae) (UniProt P02829)

Which Kd does the source give for Hsp90 (from UniProt P02829) here?
Its Kd is 60 nM.
